As usually defined, the Km is the substrate concentration at which the rate is half of its maximum. For orientation: kcat means the maximal rate divided by the concentration of active sites. Usually kcat/Km stands for the turnover number divided by the Michaelis constant.

In series [1] the target is T1, SpsADH (Sphingomonas sp. A1, UniProt A0A075B5H4).
T1 sequence (A0A075B5H4 1-258): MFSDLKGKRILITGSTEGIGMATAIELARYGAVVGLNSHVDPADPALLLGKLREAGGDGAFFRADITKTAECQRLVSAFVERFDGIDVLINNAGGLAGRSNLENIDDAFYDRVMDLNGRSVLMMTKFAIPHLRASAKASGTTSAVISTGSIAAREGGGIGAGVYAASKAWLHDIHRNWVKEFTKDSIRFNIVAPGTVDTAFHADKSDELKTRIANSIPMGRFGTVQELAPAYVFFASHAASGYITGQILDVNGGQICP
The series can be described thus: photometric SpsADH enzyme assay, oxidation of substrates (NAD+/NADH at 340 nm). In kind it is biochemical, Sphingomonas species A1. As to the method:
The activity of SpsADH was determined photometrically by monitoring the increase/decrease of NAD^+/NADH at 340 nm using the Infinite 200 pro photometer (Tecan Group Ltd.). Reactions were performed at 25 C in triplicate using 96-well microtiter plates. For determination of the substrate scope, the reaction mixtures contained 50 mM ammonium bicarbonate, pH 7.9, 0.3 mM NADH (or 1 mM NAD^+), a defined alcohol, aldehyde, aldonic acid or uronic acid as substrate and the purified enzyme. One unit of enzyme activity was defined as the amount of protein that reduces (oxidizes) 1 µmol of NAD(H)/min at […]. Calculation of Michaelis-Menten kinetics for determination of Km and vmax was done with Sigma-Plot 11.0 (Systat Software).

Substrate in series [2]: O=C(O)[C@@H](O)[C@@H](O)[C@H](O)[C@H](O)CO
The series can be described thus: purified protein, by the assay type. As to conditions: other: oxidation of C5/C6 aldonates by SpsADH (Table 3); pH 7.9.

Substrate in series [3]: O=C(O)[C@@H](O)[C@H](O)[C@H](O)[C@H](O)CO
The series can be described thus: purified protein, by the assay type. The settings on record: other: oxidation of C5/C6 aldonates by SpsADH (Table 3); pH 7.9.

Substrate in series [4]: O=C(O)[C@H](O)[C@@H](O)[C@H](O)[C@H](O)CO
The experiment in a line: purified protein, by the assay type. The settings on record: other: oxidation of C5/C6 aldonates by SpsADH (Table 3); pH 7.9.

Substrate in series [5]: O=C(O)[C@H](O)[C@H](O)[C@H](O)[C@H](O)CO
The experiment in a line: purified protein, by the assay type. The settings on record: other: oxidation of C5/C6 aldonates by SpsADH (Table 3); pH 7.9.

Substrate in series [6]: O=C(O)C(=O)C[C@H](O)[C@H](O)CO
The experiment in a line: photometric SpsADH enzyme assay, oxidation of substrates (NAD+/NADH at 340 nm). Type of series: biochemical, Sphingomonas species A1. As to conditions: other: oxidation of KDG by SpsADH, 50 mM ammonium bicarbonate pH 7.9, NAD+, 25 C.

Substrate in series [7]: O=C(O)[C@@H](O)[C@H](O)[C@H](O)CO
Described as above. Type of series: biochemical, Sphingomonas species A1. As to conditions: other: oxidation of C5/C6 aldonates by SpsADH (Table 3); pH 7.9.

Substrate in series [8]: O=C(O)[C@H](O)[C@H](O)[C@H](O)CO
The description is as above. Type of series: biochemical, Sphingomonas species A1. The settings on record: other: oxidation of C5/C6 aldonates by SpsADH (Table 3); pH 7.9.

In series [1] (oxidation by SpsADH, polyol), `OC[C@@H](O)[C@@H](O)[C@H](O)[C@@H](O)CO` [D-sorbitol] came in with an activity of 1.7 mU/mg. In series [1] (oxidation of D-sorbitol to L-gulose by SpsADH), this molecule registered a vmax of 6.2 ± 0.1 mU/mg.
As for `O=C(O)C(=O)C[C@H](O)[C@H](O)CO` [KDG, 2-keto-3-deoxy-D-gluconate], in series [1] (native substrate KDG, result in words), the oxidative activity result is listed as “very low oxidative activity”.

B1: SpsADH (Sphingomonas sp. A1) (protein)
chain: T1 sequence (A0A075B5H4 1-258)
Consider B1, for which the Michaelis constant (Km) in series [2] worked out at 18.3 ± 1.3 mM; in series [3], 27.0 ± 4.2 mM; in series [4] it was 15.7 ± 1.6 mM; in series [5], 17.1 ± 2.4 mM; in series [6] it was 20.9 ± 3.16 mM; in series [7], 25.6 ± 2.6 mM. For the same molecule, in series [8], the Michaelis-Menten constant (Km) is listed as 16.9 ± 1.4 mM. For the same molecule, the Vmax is listed as 0.52 ± 0.01 U/mg in series [2]; 0.32 ± 0.01 U/mg in series [3]; 1.28 ± 0.04 U/mg in series [4]; 0.28 ± 0.01 U/mg in series [5]; 1.81 ± 0.009 U/mg in series [6]; 0.01 ± 0.00 U/mg in series [7]. Moreover, in series [8], the Vmax turned out to be 0.01 ± 0.00 U/mg. For the same molecule, the turnover number (kcat) in series [2] stood at 0.26 ± 0.00 s⁻¹; in series [3], 0.16 ± 0.01 s⁻¹; in series [4] it was 0.63 ± 0.02 s⁻¹; in series [5], 0.14 ± 0.01 s⁻¹; in series [6], 0.89 ± 0.047 s⁻¹; in series [7], 0.01 ± 0.00 s⁻¹. Moreover, the kcat in series [8] was 0.01 ± 0.00 s⁻¹. Further, the kcat/Km in series [2] turned out to be 13.9 ± 1.2 M⁻¹ s⁻¹; in series [3] it was 5.8 ± 1.2 M⁻¹ s⁻¹; in series [4] it was 40.0 ± 5.4 M⁻¹ s⁻¹; in series [5] it was 8.1 ± 1.4 M⁻¹ s⁻¹; in series [6] it was 42.5 ± 8.68 M⁻¹ s⁻¹; in series [7], 0.2 ± 0.0 M⁻¹ s⁻¹. Also, the kcat/Km in series [8] was 0.3 ± 0.1 M⁻¹ s⁻¹.

The values above are taken from patent publication EP3460067A1, “PROCESS FOR ENZYMATIC OXIDATION OF LINEAR CARBOHYDRATES” (Technische Universität München, priority 2017, dated 2019).
